Legend:
[1] = target: T1, PumHD wild-type (Pumilio homology domain) (Homo sapiens, UniProt Q14671 Q14671:828-1176); assay: FP; 25 mM Tris-HCl pH 7.5, 0.5 mM EDTA, 50 mM KCl, 0.1 mg/mL BSA; active-fraction corrected; settings: tags: 6xHis (pBadHisB vector); label: 5'-FAM
Experimental: (§1) Methods Enzymol 469:287-302; Heyduk T, Ma Y, Tang H, Ebright R H (1996) Fluorescence anisotropy: rapid, quantitative assay for protein-DNA and protein-protein interaction. Methods Enzymol 274:492-503; Dinman J (2013) Biophysical approaches to translational control of gene expression. 317].
(§2) The cognate and non-cognate RNA targets for the purified Pum variant proteins were synthesized with 5′-labeled FAM, 6-carboxyfluorescein (IDT). […] 50 nM cognate RNA was mixed with increasing concentration of the protein (measured by NanoDrop, Thermo Scientific) in the binding buffer (25 mM Tris-HCl pH 7.5, 0.5 mM EDTA, 50 mM KCl, 0.1 mg/mL BSA). The 100 μL samples were assayed, in duplicates, for fluorescence anisotropy using a Cary Eclipse fluorimeter (Varian) with Manual Polarizer Accessory (Varian). […] Fluorescence anisotropy was calculated as a unitless ratio defined as R═(I₌−I_{⊥})/(I₌+2I_{⊥}), where I is the emission intensity parallel (I₌) or perpendicular (I_{⊥}) to the direction of polarization of the excitation source. […] The Kd of each protein to its cognate and non-cognate RNA was subsequently measured, using the protein concentration corrected to the active protein fraction, with constant concentration of RNA. The Kd was calculated from a non-linear fit in IgorPro 6.22 of the anisotropy vs. protein concentration plot to the equation [Qu X, Chaires J B (2000) Analysis of drug-DNA binding data.

[2] = target: T1, PumHD wild-type (Pumilio homology …); assay: FP; no detectable binding, fit did not converge; settings: tags: 6xHis (pBadHisB vector); label: 5'-FAM
Experimental: as §1, §2

T1 sequence (Q14671 828-1176, one chain of several): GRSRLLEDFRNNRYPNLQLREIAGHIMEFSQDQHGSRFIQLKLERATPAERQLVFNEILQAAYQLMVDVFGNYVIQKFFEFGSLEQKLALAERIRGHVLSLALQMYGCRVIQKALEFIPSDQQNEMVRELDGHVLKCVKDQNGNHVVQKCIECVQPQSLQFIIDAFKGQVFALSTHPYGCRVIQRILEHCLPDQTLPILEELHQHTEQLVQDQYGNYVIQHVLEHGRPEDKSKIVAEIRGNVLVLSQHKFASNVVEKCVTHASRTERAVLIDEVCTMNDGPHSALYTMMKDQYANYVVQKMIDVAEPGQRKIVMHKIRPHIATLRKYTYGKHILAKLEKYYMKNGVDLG

CCAGAAUUGUAUAUAUUCG (ssRNA) [wild-type NRE cognate]
Kd [1]: 0.088 nM

ACAUAUAU (ssRNA) [wild-type noncognate]
binding result [2]: no binding
